Molecular target: T1, SARS-CoV-2 Nucleocapsid protein, His Tag (SARS-CoV-2, UniProt P0DTC9 1-419)
T1 construct: Bought
Experiment: ELISA, His-tagged viral protein captured on nickel plates (6.25-50 pmol/mL)

B1: Purified C-reactive protein (CRP) (other)
chain: QTDMSRKAFVFPKESDTSYVSLKAPLTKPLKAFTVCLHFYTELSSTRGYSIFSYATKRQDNEILIFWSKDIGYSFTVGGSEILFEVPEVTVAPVHICTSWESASGIVEFWVDGKPRVRKSLKKGYTVGAEASIILGQEQDSFGGNFEGSQSLVGDIGNVNMWDFVLSPDEINTIYLGGPFSPNVLNWRALKYEVQGEVFTKPQLWP
**Q.** Does B1 bind?
**A.** no binding (tested: CRP 3 µg/mL (25 nM))

Source: US20240123029A1 (HUMANITAS MIRASOLE S P A, published 2024)
